Measurements as given in US20140363844.

Assays:
[1] = target: T1, Dianthus Precursor A[14,33]
T1 chain: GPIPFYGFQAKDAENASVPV

[2] = target: T2, Dianthus Precursor B[14,32]
T2 chain: GYKDCCVQAKDLENAAVPV

Presegetalin A1[14,19] = target: T3, Presegetalin A1[14,19]
T3 chain: GVPVWA

Presegetalin A1[14,20] = target: T4, Presegetalin A1[14,20]
T4 chain: GVPVWAF

Presegetalin A1[14,24] = target: T5, Presegetalin A1[14,24]
T5 chain: GVPVWAFQAKD

Presegetalin A1[14,30] = target: T6, Presegetalin A1[14,30]
T6 chain: GVPVWAFQAKDVENAPV

[3] = target: T7, Presegetalin A1[14,32] P16p W18A
T7 chain: GVPVAAFQAKDVENASAPV

[4] = target: T8, Presegetalin A1[14,32] P16p W18a
T8 chain: GVPVAAFQAKDVENASAPV

[5] = target: T9, Presegetalin A1[14,32] ins 16A17
T9 chain: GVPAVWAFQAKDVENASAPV

[6] = target: T10, Presegetalin A1[14,32]A19V
T10 chain: GVPVWVFQAKDVENASAPV

[7] = target: T11, Presegetalin A1[14,32]A19a
T11 chain: GVPVWAFQAKDVENASAPV

[8] = target: T12, Presegetalin A1[14,32]A22V
T12 chain: GVPVWAFQVKDVENASAPV

[9] = target: T13, Presegetalin A1[14,32]A28V
T13 chain: GVPVWAFQAKDVENVSAPV

[10] = target: T14, Presegetalin A1[14,32]A30V
T14 chain: GVPVWAFQAKDVENASVPV

[11] = target: T15, Presegetalin A1[14,32]E26A
T15 chain: GVPVWAFQAKDVANASAPV

[12] = target: T16, Presegetalin A1[14,32]F20A
T16 chain: GVPVWAAQAKDVENASAPV

Presegetalin A1[14,32] = target: T17, Presegetalin A1[14,32]
T17 chain: GVPVWAFQAKDVENASAPV

[13] = target: T18, Presegetalin A1[14,32]K23A
T18 chain: GVPVWAFQAADVENASAPV

B1: Saponaria vaccaria PCY1 (recombinant, N-terminal His6-tag, expressed in E. coli from pCB008) (protein)
chain: MATSGFSKPLHYPPVRRDETVVDDYFGVKVADPYRWLEDPNSEETKEFVDNQEKLANSVLEECELIDKFKQKIIDFVNFPRCGVPFRRANKYFHFYNSGLQAQNVFQMQDDLDGKPEVLYDPNLREGGRSGLSLYSVSEDAKYFAFGIHSGLTEWVTIKILKTEDRSYLPDTLEWVKFSPAIWTHDNKGFFYCPYPPLKEGEDHMTRSAVNQEARYHFLGTDQSEDILLWRDLENPAHHLKCQITDDGKYFLLYILDGCDDANKVYCLDLTKLPNGLESFRGREDSAPFMKLIDSFDASYTAIANDGSVFTFQTNKDAPRKKLVRVDLNNPSVWTDLVPESKKDLLESAHAVNENQLILRYLSDVKHVLEIRDLESGALQHRLPIDIGSVDGITARRRDSVVFFKFTSILTPGIVYQCDLKNDPTQLKIFRESVVPDFDRSEFEVKQVFVPSKDGTKIPIFIAARKGISLDGSHPCEMHGYGGFGINMMPTFSASRIVFLKHLGGVFCLANIRGGGEYGEEWHKAGFRDKKQNVFDDFISAAEYLISSGYTKARRVAIEGGSNGGLLVAACINQRPDLFGCAEANCGVMDMLRFHKFTLGYLWTGDYGCSDKEEEFKWLIKYSPIHNVRRPWEQPGNEETQYPATMILTADHDDRVVPLHSFKLLATMQHVLCTSLEDSPQKNPIIARIQRKAAHYGRATMTQIAEVADRYGFMAKALEAPWID
- CP (cyclic peptide product detected by LC/MS) [1]: +
- LP (linear peptide product detected by LC/MS) [1]: -
- cyclic peptide product (LC/MS, MS/MS) [1]: there was a small amount of cyclic peptide production from No. 43
- CP (cyclic peptide product detected by LC/MS) [2]: -
- LP (linear peptide product detected by LC/MS) [2]: -
- CP (cyclic peptide product detected by LC/MS) (Presegetalin A1[14,19]): -
- CP (cyclic peptide product detected by LC/MS) (Presegetalin A1[14,20]): -
- LP (linear peptide product detected by LC/MS) (Presegetalin A1[14,20]): -
- CP (cyclic peptide product detected by LC/MS) (Presegetalin A1[14,24]): -
- LP (linear peptide product detected by LC/MS) (Presegetalin A1[14,24]): +
- linear peptide formation (LC/MS, MS/MS) (Presegetalin A1[14,24]): showed linear peptide formation almost equivalent to the linear peptide formed from the WT substrate (No. 1)
- CP (cyclic peptide product detected by LC/MS) (Presegetalin A1[14,30]): -
- LP (linear peptide product detected by LC/MS) (Presegetalin A1[14,30]): +
- linear peptide formation (LC/MS, MS/MS) (Presegetalin A1[14,30]): showed linear peptide formation almost equivalent to the linear peptide formed from the WT substrate (No. 1)
- CP (cyclic peptide product detected by LC/MS) [3]: +
- LP (linear peptide product detected by LC/MS) [3]: -
- CP (cyclic peptide product detected by LC/MS) [4]: +
- LP (linear peptide product detected by LC/MS) [4]: -
- CP (cyclic peptide product detected by LC/MS) [5]: +
- LP (linear peptide product detected by LC/MS) [5]: +
- CP (cyclic peptide product detected by LC/MS) [6]: -
- LP (linear peptide product detected by LC/MS) [6]: -
- CP (cyclic peptide product detected by LC/MS) [7]: -
- LP (linear peptide product detected by LC/MS) [7]: -
- CP (cyclic peptide product detected by LC/MS) [8]: +
- LP (linear peptide product detected by LC/MS) [8]: +
- linear segetalin A production relative to WT substrate [8]: showed a relative increase in production of linear segetalin A
- CP (cyclic peptide product detected by LC/MS) [9]: +
- LP (linear peptide product detected by LC/MS) [9]: +
- linear segetalin A production relative to WT substrate [9]: showed a relative increase in production of linear segetalin A
- segetalin A production relative to WT substrate [9]: positions were found to be sensitive to substitution ... position 20, 21, 23, 24, 27, 28 and 31
- CP (cyclic peptide product detected by LC/MS) [10]: +
- LP (linear peptide product detected by LC/MS) [10]: +
- linear segetalin A production relative to WT substrate [10]: showed a relative increase in production of linear segetalin A
- CP (cyclic peptide product detected by LC/MS) [11]: +
- LP (linear peptide product detected by LC/MS) [11]: +
- linear segetalin A production relative to WT substrate [11]: showed a relative increase in production of linear segetalin A
- segetalin A production relative to WT substrate [11]: substitutions at positions 25, 26 and 29 (No. 18, 19 and 22) yielded relatively higher amounts of segetalin A than that produced from WT substrate
- CP (cyclic peptide product detected by LC/MS) [12]: +
- LP (linear peptide product detected by LC/MS) [12]: +
- linear segetalin A production relative to WT substrate [12]: a relative increase in production of linear segetalin A from all mutant substrates except with No. 13 and No. 14
- segetalin A production relative to WT substrate [12]: segetalin A production was found to be ≧42 times lower than the WT substrate
- CP (cyclic peptide product detected by LC/MS) (Presegetalin A1[14,32]): +
- LP (linear peptide product detected by LC/MS) (Presegetalin A1[14,32]): +
- PCY1 activity (total amount of segetalin A produced) (Presegetalin A1[14,32]): 3 nmol/mg of protein/min
- formation of segetalin A and linear segetalin A (LC/MS) (Presegetalin A1[14,32]): purified PCY1 showed the formation of segetalin A and linear segetalin A in the presence of presegetalin A1[14,32]
- CP (cyclic peptide product detected by LC/MS) [13]: +
